In patent US12099068B2, “Biomarkers for graft-versus-host disease” (Incyte Corporation, priority 2018, dated 2024):

Test system: plasma proteins
Test: Plasma proteins modulated between baseline and day 28 in responders (CR, VGPR, PR; n = 19), Example 6 (Table 13)
Type: in vivo, human
Details: plasma protein (OLINK NPX); responders (CR, VGPR, PR; n = 19); itacitinib 200 mg or 300 mg QD with corticosteroids; day 28 vs baseline
Method in brief: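 Plasma at baseline/screening and day 28 profiled for >1000 proteins by OLINK proximity extension assay, reported as NPX (log2). Steroid-naive and steroid-refractory patients pooled. Paired and unpaired t tests, ANOVA and Pearson correlation applied; significance at P<0.05.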

Row | Molecule | Fold Change, Decreased Expression from Baseline to Day 28
1 | BID (protein, UniProt P55957 1-195, looked up) BH3-interacting domain death …: MDCEVNNGSSLRDECITNLLVFGFLQSCSDNSFRRELDALGHELPVLAPQWEGYDELQTDGNRSSHSRLGRIEADSESQEDIIRNIARHLAQVGDSMDRSIPPGLVNGLALQLRNTSRSEEDRNRDLATALEQLLQAYPRDMEKEKTMLVLALLLAKKVASHTPSLLRDVFHTTVNFINQNLRTYVRSLARNGMD | −1.382
2 | RELT (protein, UniProt Q969Z4 26-430, looked up) Tumor necrosis factor …: STTLWQCPPGEEPDLDPGQGTLCRPCPPGTFSAAWGSSPCQPHARCSLWRRLEAQVGMATRDTLCGDCWPGWFGPWGVPRVPCQPCSWAPLGTHGCDEWGRRARRGVEVAAGASSGGETRQPGNGTRAGGPEETAAQYAVIAIVPVFCLMGLLGILVCNLLKRKGYHCTAHKEVGPGPGGGGSGINPAYRTEDANEDTIGVLVRLITEKKENAAALEELLKEYHSKQLVQTSHRPVSKLPPAPPNVPHICPHRHHLHTVQGLASLSGPCCSRCSQKKWPEVLLSPEAVAATTPVPSLLPNPTRVPKAGAKAGRQGEITILSVGRFRVARIPEQRTSSMVSEVKTITEAGPSWGDLPDSPQPGLPPEQQALLGSGGSRTKWLKPPAENKAEENRYVVRLSESNLVI | −1.3317
3 | PSP-D (protein, UniProt P35247 21-375, looked up) Pulmonary …: AEMKTYSHRTMPSACTLVMCSSVESGLPGRDGRDGREGPRGEKGDPGLPGAAGQAGMPGQAGPVGPKGDNGSVGEPGPKGDTGPSGPPGPPGVPGPAGREGPLGKQGNIGPQGKPGPKGEAGPKGEVGAPGMQGSAGARGLAGPKGERGVPGERGVPGNTGAAGSAGAMGPQGSPGARGPPGLKGDKGIPGDKGAKGESGLPDVASLRQQVEALQGQVQHLQAAFSQYKKVELFPNGQSVGEKIFKTAGFVKPFTEAQLLCTQAGGQLASPRSAAENAALQQLVVAKNEAAFLSMTDSKTEGKFTYPTGESLVYSNWAPGEPNDDGGSEDCVEIFTNGKWNDRACGEKRLVVCEF | −1.2426
4 | SELL (protein, UniProt P14151 39-372, looked up) L-selectin: WTYHYSEKPMNWQRARRFCRDNYTDLVAIQNKAEIEYLEKTLPFSRSYYWIGIRKIGGIWTWVGTNKSLTEEAENWGDGEPNNKKNKEDCVEIYIKRNKDAGKWNDDACHKLKAALCYTASCQPWSCSGHGECVEIINNYTCNCDVGYYGPQCQFVIQCEPLEAPELGTMDCTHPLGNFSFSSQCAFSCSEGTNLTGIEETTCGPFGNWSSPEPTCQVIQCEPLSAPDLGIMNCSHPLASFSFTSACTFICSEGTELIGKKKTICESSGIWSNPSPICQKLDKSFSMIKEGDYNPLFIPVAVMVTAFSGLAFIIWLARRLKKGKKSKRSMNDPY | −1.4428
5 | LILRB2 (protein, UniProt Q8N423 22-597, looked up) Leukocyte immunoglobulin-like …: QTGTIPKPTLWAEPDSVITQGSPVTLSCQGSLEAQEYRLYREKKSASWITRIRPELVKNGQFHIPSITWEHTGRYGCQYYSRARWSELSDPLVLVMTGAYPKPTLSAQPSPVVTSGGRVTLQCESQVAFGGFILCKEGEDEHPQCLNSQPHARGSSRAIFSVGPVSPNRRWSHRCYGYDLNSPYVWSSPSDLLELLVPGVSKKPSLSVQPGPVMAPGESLTLQCVSDVGYDRFVLYKEGERDLRQLPGRQPQAGLSQANFTLGPVSRSYGGQYRCYGAHNLSSECSAPSDPLDILITGQIRGTPFISVQPGPTVASGENVTLLCQSWRQFHTFLLTKAGAADAPLRLRSIHEYPKYQAEFPMSPVTSAHAGTYRCYGSLNSDPYLLSHPSEPLELVVSGPSMGSSPPPTGPISTPGPEDQPLTPTGSDPQSGLGRHLGVVIGILVAVVLLLLLLLLLFLILRHRRQGKHWTSTQRKADFQHPAGAVGPEPTDRGLQWRSSPAADAQEENLYAAVKDTQPEDGVEMDTRAAASEAPQDVTYAQLHSLTLRRKATEPPPSQEREPPAEPSIYATLAIH | −1.2555
6 | AZU1 (protein, UniProt P20160 27-248, looked up) Azurocidin: IVGGRKARPRQFPFLASIQNQGRHFCGGALIHARFVMTAASCFQSQNPGVSTVVLGAYDLRRRERQSRQTFSISSMSENGYDPQQNLNDLMLLQLDREANLTSSVTILPLPLQNATVEAGTRCQVAGWGSQRSGGRLSRFPRFVNVTVTPEDQCRPNNVCTGVLTRRGGICNGDGGTPLVCEGLAHGVASFSLGPCGRGPDFFTRVALFRDWIDGVLNNPGP | −2.0976
7 | SDC4 (protein, UniProt P31431 19-198, looked up) Syndecan-4: ESIRETEVIDPQDLLEGRYFSGALPDDEDVVGPGQESDDFELSGSGDLDDLEDSMIGPEVVHPLVPLDNHIPERAGSGSQVPTEPKKLEENEVIPKRISPVEESEDVSNKVSMSSTVQGSNIFERTEVLAALIVGGIVGILFAVFLILLLMYRMKKKDEGSYDLGKKPIYKKAPTNEFYA | −1.4678
8 | SELE (protein, UniProt P16581 22-610, looked up) E-selectin: WSYNTSTEAMTYDEASAYCQQRYTHLVAIQNKEEIEYLNSILSYSPSYYWIGIRKVNNVWVWVGTQKPLTEEAKNWAPGEPNNRQKDEDCVEIYIKREKDVGMWNDERCSKKKLALCYTAACTNTSCSGHGECVETINNYTCKCDPGFSGLKCEQIVNCTALESPEHGSLVCSHPLGNFSYNSSCSISCDRGYLPSSMETMQCMSSGEWSAPIPACNVVECDAVTNPANGFVECFQNPGSFPWNTTCTFDCEEGFELMGAQSLQCTSSGNWDNEKPTCKAVTCRAVRQPQNGSVRCSHSPAGEFTFKSSCNFTCEEGFMLQGPAQVECTTQGQWTQQIPVCEAFQCTALSNPERGYMNCLPSASGSFRYGSSCEFSCEQGFVLKGSKRLQCGPTGEWDNEKPTCEAVRCDAVHQPPKGLVRCAHSPIGEFTYKSSCAFSCEEGFELHGSTQLECTSQGQWTEEVPSCQVVKCSSLAVPGKINMSCSGEPVFGTVCKFACPEGWTLNGSAARTCGATGHWSGLLPTCEAPTESNIPLVAGLSAAGLSLLTLAPFLLWLRKCLRKAKKFVPASSCQSLESDGSYQKPSYIL | −1.5291
9 | MESDC2 (protein, UniProt Q14696 34-234, looked up) LRP chaperone MESD: AEGSPGTPDESTPPPRKKKKDIRDYNDADMARLLEQWEKDDDIEEGDLPEHKRPSAPVDFSKIDPSKPESILKMTKKGKTLMMFVTVSGSPTEKETEEITSLWQGSLFNANYDVQRFIVGSDRAIFMLRDGSYAWEIKDFLVGQDRCADVTLEGQVYPGKGGGSKEKNKTKQDKGKKKKEGDLKSRSSKEENRAGNKREDL | −1.7056
10 | CLEC5A (protein, UniProt Q9NY25 1-188, looked up) C-type lectin domain family 5 …: MNWHMIISGLIVVVLKVVGMTLFLLYFPQIFNKSNDGFTTTRSYGTVSQIFGSSSPSPNGFITTRSYGTVCPKDWEFYQARCFFLSTSESSWNESRDFCKGKGSTLAIVNTPEKLKFLQDITDAEKYFIGLIYHREEKRWRWINNSVFNGNVTNQNQNFNCATIGLTKTFDAASCDISYRRICEKNAK | −1.3618
11 | ADAM 8 (protein, UniProt P78325 17-824, looked up) Disintegrin and …: IAPSRPWALMEQYEVVLPWRLPGPRVRRALPSHLGLHPERVSYVLGATGHNFTLHLRKNRDLLGSGYTETYTAANGSEVTEQPRGQDHCFYQGHVEGYPDSAASLSTCAGLRGFFQVGSDLHLIEPLDEGGEGGRHAVYQAEHLLQTAGTCGVSDDSLGSLLGPRTAAVFRPRPGDSLPSRETRYVELYVVVDNAEFQMLGSEAAVRHRVLEVVNHVDKLYQKLNFRVVLVGLEIWNSQDRFHVSPDPSVTLENLLTWQARQRTRRHLHDNVQLITGVDFTGTTVGFARVSAMCSHSSGAVNQDHSKNPVGVACTMAHEMGHNLGMDHDENVQGCRCQERFEAGRCIMAGSIGSSFPRMFSDCSQAYLESFLERPQSVCLANAPDLSHLVGGPVCGNLFVERGEQCDCGPPEDCRNRCCNSTTCQLAEGAQCAHGTCCQECKVKPAGELCRPKKDMCDLEEFCDGRHPECPEDAFQENGTPCSGGYCYNGACPTLAQQCQAFWGPGGQAAEESCFSYDILPGCKASRYRADMCGVLQCKGGQQPLGRAICIVDVCHALTTEDGTAYEPVPEGTRCGPEKVCWKGRCQDLHVYRSSNCSAQCHNHGVCNHKQECHCHAGWAPPHCAKLLTEVHAASGSLPVFVVVVLVLLAVVLVTLAGIIVYRKARSRILSRNVAPKTTMGRSNPLFHQAASRVPAKGGAPAPSRGPQELVPTTHPGQPARHPASSVALKRPPPAPPVTVSSPPFPVPVYTRQAPKQVIKPTFAPPVPPVKPGAGAANPGPAEGAVGPKVALKPPIQRKQGAGAPTAP | −1.3896
12 | CRTAM (protein, UniProt O95727 18-393, looked up) Cytotoxic and regulatory …: SLTNHTETITVEEGQTLTLKCVTSLRKNSSLQWLTPSGFTIFLNEYPALKNSKYQLLHHSANQLSITVPNVTLQDEGVYKCLHYSDSVSTKEVKVIVLATPFKPILEASVIRKQNGEEHVVLMCSTMRSKPPPQITWLLGNSMEVSGGTLHEFETDGKKCNTTSTLIIHTYGKNSTVDCIIRHRGLQGRKLVAPFRFEDLVTDEETASDALERNSLSSQDPQQPTSTVSVTEDSSTSEIDKEEKEQTTQDPDLTTEANPQYLGLARKKSGILLLTLVSFLIFILFIIVQLFIMKLRKAHVIWKKENEVSEHTLESYRSRSNNEETSSEEKNGQSSHPMRCMNYITKLYSEAKTKRKENVQHSKLEEKHIQVPESIV | −1.5805
13 | CD5 (protein, UniProt P06127 25-495, looked up) T-cell surface glycoprotein …: RLSWYDPDFQARLTRSNSKCQGQLEVYLKDGWHMVCSQSWGRSSKQWEDPSQASKVCQRLNCGVPLSLGPFLVTYTPQSSIICYGQLGSFSNCSHSRNDMCHSLGLTCLEPQKTTPPTTRPPPTTTPEPTAPPRLQLVAQSGGQHCAGVVEFYSGSLGGTISYEAQDKTQDLENFLCNNLQCGSFLKHLPETEAGRAQDPGEPREHQPLPIQWKIQNSSCTSLEHCFRKIKPQKSGRVLALLCSGFQPKVQSRLVGGSSICEGTVEVRQGAQWAALCDSSSARSSLRWEEVCREQQCGSVNSYRVLDAGDPTSRGLFCPHQKLSQCHELWERNSYCKKVFVTCQDPNPAGLAAGTVASIILALVLLVVLLVVCGPLAYKKLVKKFRQKKQRQWIGPTGMNQNMSFHRNHTATVRSHAENPTASHVDNEYSQPPRNSHLSAYPALEGALHRSSMQPDNSSDSDYDLHGAQRL | −1.9942
